Assay results taken from PMC6182170.

Legend:
[1] = target: T1, ADR-1 WT (Caenorhabditis elegans) (UniProt Q9U3D6); experiment: EMSA; conditions: EMSA: 20 pM dsRNA, 50 mM KCl, 10 mM Tris-HCl pH 8.0, 10% glycerol, 1 mM MgCl2, 0.5 mM DTT, on ice 30 min; native 6% gel, 0.5x TBE, 4 C
T1 sequence: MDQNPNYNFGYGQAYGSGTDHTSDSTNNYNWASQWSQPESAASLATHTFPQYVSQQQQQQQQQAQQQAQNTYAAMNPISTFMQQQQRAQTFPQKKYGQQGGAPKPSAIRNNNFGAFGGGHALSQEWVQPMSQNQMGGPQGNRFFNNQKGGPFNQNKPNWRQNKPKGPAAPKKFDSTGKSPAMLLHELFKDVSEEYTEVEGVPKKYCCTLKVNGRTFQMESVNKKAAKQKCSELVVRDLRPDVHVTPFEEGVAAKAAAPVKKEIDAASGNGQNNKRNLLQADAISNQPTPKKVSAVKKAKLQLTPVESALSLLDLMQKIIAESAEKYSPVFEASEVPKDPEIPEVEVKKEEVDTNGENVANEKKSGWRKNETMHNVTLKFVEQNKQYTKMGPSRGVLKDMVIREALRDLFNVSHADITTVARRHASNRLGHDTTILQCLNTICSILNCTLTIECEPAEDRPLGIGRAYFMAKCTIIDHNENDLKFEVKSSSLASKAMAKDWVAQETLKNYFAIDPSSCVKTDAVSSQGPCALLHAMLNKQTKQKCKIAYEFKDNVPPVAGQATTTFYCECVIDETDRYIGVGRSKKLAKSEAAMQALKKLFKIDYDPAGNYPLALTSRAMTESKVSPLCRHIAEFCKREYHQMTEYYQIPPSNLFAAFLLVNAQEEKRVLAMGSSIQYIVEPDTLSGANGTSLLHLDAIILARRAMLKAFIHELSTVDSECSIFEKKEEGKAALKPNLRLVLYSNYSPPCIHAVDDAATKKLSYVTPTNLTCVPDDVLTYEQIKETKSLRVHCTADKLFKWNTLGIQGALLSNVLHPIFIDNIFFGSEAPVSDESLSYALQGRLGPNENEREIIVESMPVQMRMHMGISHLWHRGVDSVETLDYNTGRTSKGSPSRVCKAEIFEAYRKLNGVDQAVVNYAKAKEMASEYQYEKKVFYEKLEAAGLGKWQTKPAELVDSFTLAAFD

[2] = target: ADR-2 WT (Caenorhabditis elegans) (UniProt Q22618); experiment: EMSA; conditions: EMSA: 20 pM dsRNA, 50 mM KCl, 10 mM Tris-HCl pH 8.0, 10% glycerol, 1 mM MgCl2, 0.5 mM DTT, on ice 30 min; native 6% gel, 0.5x TBE, 4 C
ADR-2 WT (Caenorhabditis elegans), sequence (Q22618 whole entry): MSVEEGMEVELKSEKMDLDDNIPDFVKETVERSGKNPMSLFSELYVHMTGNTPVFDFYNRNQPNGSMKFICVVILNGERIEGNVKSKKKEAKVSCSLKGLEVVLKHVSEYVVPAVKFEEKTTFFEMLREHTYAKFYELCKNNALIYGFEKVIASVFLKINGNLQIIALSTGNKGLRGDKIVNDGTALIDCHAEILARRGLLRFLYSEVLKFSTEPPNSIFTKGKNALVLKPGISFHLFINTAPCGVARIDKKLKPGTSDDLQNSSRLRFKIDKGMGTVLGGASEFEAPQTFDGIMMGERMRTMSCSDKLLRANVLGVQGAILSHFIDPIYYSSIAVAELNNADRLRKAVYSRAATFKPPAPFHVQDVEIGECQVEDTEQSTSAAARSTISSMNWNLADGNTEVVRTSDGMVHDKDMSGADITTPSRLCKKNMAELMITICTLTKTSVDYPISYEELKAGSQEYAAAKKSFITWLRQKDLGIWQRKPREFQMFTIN

Question: “UUAUUAGGUCGGCAAAUAAUUAUUGACGUGUUUUGCCAAUUAACGAUUUUUUGUAAAUUUUAUAUGUGUCUCUUACAGUAAACCGAGAGUGUAUAAAAGCAUAUGAAUAUCAGUUGCUUUGGUCAUCUGAGUAGUAAUACGAUUCGAAAAAAUCGAAAAGUUUUUUUUCCAAUUUUUUGAGUUAGCCGUGAGAGUUG / CAACUCUUCACAGCUAACUCAAAAAAUCGCGAAAAGCAUUUUUCAAAAAAUUUUUGAUUUUUUAGAUUCUUAAUACUACGCAGGUAGCCAAAGUAGCUGAUAUUUUUAUGUUUUCAUACAUUCACAUUUUACUAUAAGACACACAUACAAAAUUUACAAAAAUUGUUAAUUGACAAAAUACGUCAAUAAUUAUUUGUCUACCUAAUAA [lam-2 3'UTR 200 bp dsRNA]” was tested. Which Kd [1] did it give?
Answer: 0.43 nM

Question: What about the Kd [2] of the same sequence?
Answer: 76.3 nM
